Substrate: O=c1oc(/C=C/c2ccc(O)c(O)c2)cc(O)c1O
Test: bioluminescence, initial light intensity, Michaelis-Menten fit
Type: biochemical, Neonothopanus nambi
Details: 50 nM enzyme, 200 mM Na-phosphate pH 8.0, 500 mM Na2SO4, 0.1% DDM, room temperature, luciferin 2 nM to 50 μM

B1: recombinant N. nambi luciferase (nnLuz) (Neonothopanus nambi) (protein)
chain: MRINISLSSLFERLSKLSSRSIAITCGVVLASAIAFPIIRRDYQTFLEVGPSYAPQNFRGYIIVCVLSLFRQEQKGLAIYDRLPEKRRWLADLPFREGTRPSITSHIIQRQRTQLVDQEFATRELIDKVIPRVQARHTDKTFLSTSKFEFHAKAIFLLPSIPINDPLNIPSHDTVRRTKREIAHMHDYHDCTLHLALAAQDGKEVLKKGWGQRHPLAGPGVPGPPTEWTFLYAPRNEEEARVVEMIVEASIGYMTNDPAGKIVENAK
notes: expressed in Pichia pastoris GS115; membrane protein solubilized and purified in DDM
Km: 1.09 ± 0.06 µM
